Measured values reported in the supplement of paper PMC10567573.

B1: ZNF449 (parent)
chain: CTHCSKSFRQRAGLIMHQVTHFRG

Variants of: B1
Assay: protein stability index of a GFP-peptide fusion (GPS, HEK-293T) (PSI 1-6); higher = more stable
Settings: c terminus: a fixed tail appended
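Note: lentivirally expressed fusions sorted by FACS into six bins by GFP to DsRed ratio, PSI derived from sequencing read proportions per bin multiplied by bin number.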

Row | Variant | protein stability index
1 | CTHQSKSFRQRAGLIMHQVTHFRG [C4Q] | 1.98
2 | CTHTSKSFRQRAGLIMHQVTHFRG [C4T] | 2.18
3 | CTHISKSFRQRAGLIMHQVTHFRG [C4I] | 2.58
4 | CTHESKSFRQRAGLIMHQVTHFRG [C4E] | 1.77
5 | CTHLSKSFRQRAGLIMHQVTHFRG [C4L] | 2.13
6 | CTHMSKSFRQRAGLIMHQVTHFRG [C4M] | 1.68
7 | CTHGSKSFRQRAGLIMHQVTHFRG [C4G] | 1.8
8 | CTHASKSFRQRAGLIMHQVTHFRG [C4A] | 2.6
9 | CTHHSKSFRQRAGLIMHQVTHFRG [C4H] | 2.39
10 | CTHRSKSFRQRAGLIMHQVTHFRG [C4R] | 2.11
11 | CTHPSKSFRQRAGLIMHQVTHFRG [C4P] | 1.6
12 | CTHKSKSFRQRAGLIMHQVTHFRG [C4K] | 1.63
13 | CTHVSKSFRQRAGLIMHQVTHFRG [C4V] | 1.58
14 | CIHCSKSFRQRAGLIMHQVTHFRG [T2I] | 2.7
15 | CNHCSKSFRQRAGLIMHQVTHFRG [T2N] | 2.29
16 | CDHCSKSFRQRAGLIMHQVTHFRG [T2D] | 1.86
17 | CPHCSKSFRQRAGLIMHQVTHFRG [T2P] | 1.82
18 | CRHCSKSFRQRAGLIMHQVTHFRG [T2R] | 2.18
19 | CKHCSKSFRQRAGLIMHQVTHFRG [T2K] | 2.25
20 | CFHCSKSFRQRAGLIMHQVTHFRG [T2F] | 1.45
21 | CHHCSKSFRQRAGLIMHQVTHFRG [T2H] | 1.92
22 | CVHCSKSFRQRAGLIMHQVTHFRG [T2V] | 1.98
23 | CEHCSKSFRQRAGLIMHQVTHFRG [T2E] | 2.4
24 | CQHCSKSFRQRAGLIMHQVTHFRG [T2Q] | 2.84

Row | Variant | protein stability index
25 | CLHCSKSFRQRAGLIMHQVTHFRG [T2L] | 1.97
26 | CGHCSKSFRQRAGLIMHQVTHFRG [T2G] | 1.5
27 | CSHCSKSFRQRAGLIMHQVTHFRG [T2S] | 1.98
28 | CMHCSKSFRQRAGLIMHQVTHFRG [T2M] | 1.71
29 | CCHCSKSFRQRAGLIMHQVTHFRG [T2C] | 2.09
30 | FTHCSKSFRQRAGLIMHQVTHFRG [C1F] | 1.22
31 | QTHCSKSFRQRAGLIMHQVTHFRG [C1Q] | 3.23
32 | YTHCSKSFRQRAGLIMHQVTHFRG [C1Y] | 1.2
33 | ETHCSKSFRQRAGLIMHQVTHFRG [C1E] | 1.77
34 | VTHCSKSFRQRAGLIMHQVTHFRG [C1V] | 1.64
35 | KTHCSKSFRQRAGLIMHQVTHFRG [C1K] | 2.66
36 | DTHCSKSFRQRAGLIMHQVTHFRG [C1D] | 2.01
37 | ATHCSKSFRQRAGLIMHQVTHFRG [C1A] | 2.17
38 | WTHCSKSFRQRAGLIMHQVTHFRG [C1W] | 3.78
39 | STHCSKSFRQRAGLIMHQVTHFRG [C1S] | 1.91
40 | HTHCSKSFRQRAGLIMHQVTHFRG [C1H] | 1.96
41 | LTHCSKSFRQRAGLIMHQVTHFRG [C1L] | 2.48
42 | TTHCSKSFRQRAGLIMHQVTHFRG [C1T] | 1.5
43 | MTHCSKSFRQRAGLIMHQVTHFRG [C1M] | 1.53
44 | ITHCSKSFRQRAGLIMHQVTHFRG [C1I] | 1.74
45 | RTHCSKSFRQRAGLIMHQVTHFRG [C1R] | 1.93
46 | NTHCSKSFRQRAGLIMHQVTHFRG [C1N] | 1.72
47 | CTHCSKLFRQRAGLIMHQVTHFRG [S7L] | 2.69
48 | CTHCSKYFRQRAGLIMHQVTHFRG [S7Y] | 2.44

Row | Variant | protein stability index
49 | CTHCSKWFRQRAGLIMHQVTHFRG [S7W] | 1.78
50 | CTHCSKTFRQRAGLIMHQVTHFRG [S7T] | 1.08
51 | CTHCSKAFRQRAGLIMHQVTHFRG [S7A] | 2.14
52 | CTHCSKIFRQRAGLIMHQVTHFRG [S7I] | 1.73
53 | CTHCSKMFRQRAGLIMHQVTHFRG [S7M] | 1.57
54 | CTHCSKNFRQRAGLIMHQVTHFRG [S7N] | 2.58
55 | CTHCSKEFRQRAGLIMHQVTHFRG [S7E] | 2.29
56 | CTHCSKFFRQRAGLIMHQVTHFRG [S7F] | 2.49
57 | CTHCSKKFRQRAGLIMHQVTHFRG [S7K] | 2.62
58 | CTHCSKCFRQRAGLIMHQVTHFRG [S7C] | 2.98
59 | CTHCSKRFRQRAGLIMHQVTHFRG [S7R] | 1.31
60 | CTHCSKDFRQRAGLIMHQVTHFRG [S7D] | 2.18
61 | CTHCSKPFRQRAGLIMHQVTHFRG [S7P] | 1.59
62 | CTHCSKQFRQRAGLIMHQVTHFRG [S7Q] | 1.76
63 | CTHCSKVFRQRAGLIMHQVTHFRG [S7V] | 2.22
64 | CTHCSKSTRQRAGLIMHQVTHFRG [F8T] | 1.7
65 | CTHCSKSKRQRAGLIMHQVTHFRG [F8K] | 1.9
66 | CTHCSKSLRQRAGLIMHQVTHFRG [F8L] | 1.79
67 | CTHCSKSYRQRAGLIMHQVTHFRG [F8Y] | 3.03
68 | CTHCSKSHRQRAGLIMHQVTHFRG [F8H] | 1.44
69 | CTHCSKSPRQRAGLIMHQVTHFRG [F8P] | 1.81
70 | CTHCSKSNRQRAGLIMHQVTHFRG [F8N] | 2.04
71 | CTHCSKSVRQRAGLIMHQVTHFRG [F8V] | 1.07
72 | CTHCSKSMRQRAGLIMHQVTHFRG [F8M] | 1.38

Row | Variant | protein stability index
73 | CTHCSKSSRQRAGLIMHQVTHFRG [F8S] | 2.43
74 | CTHCSKSDRQRAGLIMHQVTHFRG [F8D] | 1.54
75 | CTHCSKSCRQRAGLIMHQVTHFRG [F8C] | 2.74
76 | CTHCSKSQRQRAGLIMHQVTHFRG [F8Q] | 2.17
77 | CTHCSKSIRQRAGLIMHQVTHFRG [F8I] | 2.15
78 | CTHCSKSRRQRAGLIMHQVTHFRG [F8R] | 2.1
79 | CTHCSKSARQRAGLIMHQVTHFRG [F8A] | 1.91
80 | CTHCSKSERQRAGLIMHQVTHFRG [F8E] | 2.19
81 | CTRCSKSFRQRAGLIMHQVTHFRG [H3R] | 1.77
82 | CTKCSKSFRQRAGLIMHQVTHFRG [H3K] | 2.22
83 | CTNCSKSFRQRAGLIMHQVTHFRG [H3N] | 2.18
84 | CTFCSKSFRQRAGLIMHQVTHFRG [H3F] | 2.09
85 | CTYCSKSFRQRAGLIMHQVTHFRG [H3Y] | 2.28
86 | CTMCSKSFRQRAGLIMHQVTHFRG [H3M] | 2.42
87 | CTTCSKSFRQRAGLIMHQVTHFRG [H3T] | 2.09
88 | CTQCSKSFRQRAGLIMHQVTHFRG [H3Q] | 1.45
89 | CTLCSKSFRQRAGLIMHQVTHFRG [H3L] | 2.08
90 | CTECSKSFRQRAGLIMHQVTHFRG [H3E] | 2.11
91 | CTSCSKSFRQRAGLIMHQVTHFRG [H3S] | 1.66
92 | CTWCSKSFRQRAGLIMHQVTHFRG [H3W] | 1.38
93 | CTPCSKSFRQRAGLIMHQVTHFRG [H3P] | 1.04
94 | CTDCSKSFRQRAGLIMHQVTHFRG [H3D] | 3.44
